The record followed here is US20100104554A1 (FUSION ANTIBODIES LIMITED A CORPORATION OF GREAT BRITIAN, published 2010).

One may read the Ki as the equilibrium dissociation constant of an inhibitor or competing ligand from its target. Read a low Ki as a stronger hold on the target.

Assay [1] concerns the target T1, human cathepsin S (Calbiochem) (human, UniProt P25774 115-331).
T1 construct: also called CatS; Cat S
In words: fluorometric enzyme inhibition assay with Z-VVR-AMC, rates taken from progress curves. How it is done: Enzymatic assays were used to ascertain the ability of the rCatSPP to inhibit the peptidolytic activity of human cathepsins S, L, K, V and B (Calbiochem). Assays were performed in triplicate in 96-well microtitre plates in the presence of 100 mM sodium acetate, 1 mM ethylenediaminetetraacetate (EDTA), 0.1% Brij and 1 mM: dithiothreitol (DTT) at pH 5.5. CatS activity was monitored using the fluorigenic substrate carbobenzloxy-L-valinyl-L-vahnyl-L-arginylamido-4-methyl coumarin (Z-Val-Val-Arg-AMC, 25 μM), assays for cathepsins L, K and V were performed using carbobenzloxy-L-phenylalanyl-L-arginylamido-4-methyl coumarin (Z-Phe-Arg-AMC, 25 μM) and assays for CatB were performed using carbobenzloxy-L-arginylamido -L-arginylamido-4-methyl coumarin (Z-Arg-Arg-AMG, 25 μM) as substrates. Purified rCatSPP was added to assays as required at various concentrations (0-1000 nM). All experiments were performed using a Cytofluor® 4000 spectrofluorimeter with excitation at 395 nm and emission at 460 nm. […]
The inhibition of CatS peptidolytic activity using CatSPP Fc was measured. The rCatSPP-Fc was assessed by fluorometric assay using the fluorogenic substrate Z-VVR-AMC to determine if the species had the ability to retain its inhibition of CatS after the addition of the Fc-domain without any negative effects on the kinetics. […]

In assay [2] the target is T1, human cathepsin S (Calbiochem). Nature of the assay: cell-based or functional assay.
The target in assay [3] is T2, human cathepsin V (Calbiochem) (human, UniProt O60911 114-334).
T2 construct: also called CatV; Cat V
T2 sequence (O60911 114-334 limits assumed): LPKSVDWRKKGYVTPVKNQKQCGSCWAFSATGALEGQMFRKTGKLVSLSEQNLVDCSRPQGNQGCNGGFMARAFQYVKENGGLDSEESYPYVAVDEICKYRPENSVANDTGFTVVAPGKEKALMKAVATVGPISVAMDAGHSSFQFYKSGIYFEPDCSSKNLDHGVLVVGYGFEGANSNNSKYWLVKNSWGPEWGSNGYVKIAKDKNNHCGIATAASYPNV
In words: fluorometric enzyme inhibition assay with Z-Phe-Arg-AMC, non-linear regression of progress curves. How it is done: (§1) Enzymatic assays were used to ascertain the ability of the rCatSPP to inhibit the peptidolytic activity of human cathepsins S, L, K, V and B (Calbiochem). Assays were performed in triplicate in 96-well microtitre plates in the presence of 100 mM sodium acetate, 1 mM ethylenediaminetetraacetate (EDTA), 0.1% Brij and 1 mM: dithiothreitol (DTT) at pH 5.5. CatS activity was monitored using the fluorigenic substrate carbobenzloxy-L-valinyl-L-vahnyl-L-arginylamido-4-methyl coumarin (Z-Val-Val-Arg-AMC, 25 μM), assays for cathepsins L, K and V were performed using carbobenzloxy-L-phenylalanyl-L-arginylamido-4-methyl coumarin (Z-Phe-Arg-AMC, 25 μM) and assays for CatB were performed using carbobenzloxy-L-arginylamido -L-arginylamido-4-methyl coumarin (Z-Arg-Arg-AMG, 25 μM) as substrates. Purified rCatSPP was added to assays as required at various concentrations (0-1000 nM). All experiments were performed using a Cytofluor® 4000 spectrofluorimeter with excitation at 395 nm and emission at 460 nm. To confirm that the rCatSPP-Fc also had the ability to inhibit the activity of CatS, flurometric assays were performed using CatS, Z-Val-Val-Arg-AMC, 25 μM) in the presence of the rCatSPP-Fc (0 nM-200 nM).
(§2) Fluorescence was monitored for 30 mins and the RFU plotted over time to generate fluorometric progress curves. […] All fluorometric assays were performed in replicates of three.

Assay [4] has as its target T3, human cathepsin L (Calbiochem) (human, UniProt P07711 114-333, limits assumed).
T3 construct: also called CatL; Cat L
The description is as above. How it is done: as §1, §2

Assay [5] addresses T4, human cathepsin K (Calbiochem) (human, UniProt P43235 115-329).
T4 construct: also called CatK; Cat K
T4 sequence (looked up): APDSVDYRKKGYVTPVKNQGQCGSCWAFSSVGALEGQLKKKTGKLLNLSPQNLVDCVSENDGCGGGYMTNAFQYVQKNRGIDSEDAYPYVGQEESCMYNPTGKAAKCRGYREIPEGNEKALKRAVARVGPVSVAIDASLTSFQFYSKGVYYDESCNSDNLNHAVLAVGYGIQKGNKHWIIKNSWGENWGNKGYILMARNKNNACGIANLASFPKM
The description is as above. How it is done:
as §1, §2

T3 sequence (P07711 114-333 limits assumed): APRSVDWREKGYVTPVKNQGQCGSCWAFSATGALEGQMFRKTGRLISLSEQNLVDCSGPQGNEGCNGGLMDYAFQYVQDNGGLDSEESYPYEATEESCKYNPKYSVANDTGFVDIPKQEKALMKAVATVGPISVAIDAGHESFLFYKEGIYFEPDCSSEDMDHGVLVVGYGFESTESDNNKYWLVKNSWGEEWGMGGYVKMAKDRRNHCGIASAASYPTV

B1: recombinant cathepsin S propeptide with C-terminal IgG2 Fc domain and N-terminal His-tag, expressed from pRSET A-Fc (Fc fusion)
chain: QLHKDPTLDHHWHLWKKTYGKQYKEKNEEAVRRLIWEKNLKFVMLHNLEHSMGMHSYDLGMNHLGDMTSEEVMSLMSSLRVPSQWQRNITYKSNPNR
notes: About 46 kDa, made in E. coli BL21 (DE3) pLysS; also called rCatSPP-Fc; CatSPP-Fc; not shown: N-terminal His-tag and leader from the pRSET A vector; IgG2 Fc domain engineered into the pRSET vector
Molecule B1 had a Ki in assay [1] of 8.9 nM. Further, the “EC50 of MDA-MB-231 tumour cell invasion (modified Boyden chamber, Matrigel)” value in assay [2] is 8.3 nM.

B2: recombinant human cathepsin S propeptide (residues 17-113) with N-terminal hexahistidine tag, expressed from pQE30 (peptide)
chain: MRGSHHHHHHGSQLHKDPTLDHHWHLWKKTYGKQYKEKNEEAVRRLIWEKNLKFVMLHNLEHSMGMHSYDLGMNHLGDMTSEEVMSLTSSLRVPSQWQRNITYKSNPNRVDLQPSLIS
notes: also called rCatSPP; CatSPP
As for B2, the Ki was 4.8 nM in assay [3], 0.62 nM in assay [4] and 17.6 nM in assay [5]. The “EC50 of MDA-MB-231 tumour cell invasion (modified Boyden chamber, Matrigel)” value in assay [2] came to 78 nM.
